Data reported in the DeepSol protein solubility set.

assay: soluble on expression in E. coli; label from the status in PepcDB or PDB records

| Sequence | soluble on expression in E. coli |
| --- | --- |
| MGSDKIHHHHHHMNISTIVSNLKDLILEVRAPYDLEITGVSNHSSKVKKGDLFICRRGEKFDSHEIIPEVMEKGAVAVVVEREIDLDFPYIQVFDSRYFEAKVASLFFEDPWKDVLTFGVTGTNGKTTTTMMIYHMLTSLGERGSVLTTAVKRILGNSYYDDITTPDAITILSAMKENREGGGKFFALEVSSHALVQQRVEGVRFDVGIFTNISRDHLDFHGTFENYLKAKLHLFDLLKDDGVAVLNESLADAFNRKSRKITFGTSKNADYRLGNIEVSWEGTQFVLETPDGLLKVFTRAIGDFNAYNAAAAIAALHQLGYDPKDLASSLETFTGVEGRFEVVRGAKKIGLNVVVDFAHSPDALEKLLKNVRKISQGRVIVVFGAGGNSDRGKRPMMSEVASKLADVVILTTDDPRGEDPEQIMEDLIKGIDKRKPYLVLFDRREAIETALTIANRGDSVVIAGRGHERYQIIDEEKKVPFQDREVVEEIIRDKLKGRKYAQ | not soluble |
| MGSDKIHHHHHHMNKDFTFTIKSSCFDENYNPSENTRITTNFANLARGKSRQENLRNTLVMMDNRFNTLAYWDNPKANRYSVELEIISVEIDIEGNGDTFPAIEILKTNIVDKKTNERIEGIVGNNFSSYVRDYDFSVLLPEHNKSHPGFSTPDNFGDLHGKLFKCFTNSKFYKDNFNKQPVICLSVSSKNTYHRTGNQHPVLGIEYQQNEPSLTDHYFERMGLQARYFMPANSVAPLAFYFSGDLLNDYTNLELISTISTMETFQKIYRPEIYNANSAAGQYYQPNLNNQDHSLTKIVYDRVERSQLAIEQGKFTEEHFIKPYKNILEQWSAHYAR | not soluble |
| MGSDKIHHHHHHMNKELETLIMSAVDLPTIPVVATKVIELIEQEDVTIEKLATAVSSDPAVAARILKLSNSAYYGCQRQINTLSAAIMLLGFKTLKSLVIAASLKQLNRRFGLTEKMLWEHSVGAALAGRVIATQGRFINEETGFLVGLFHDLGKTIMSNRDPQKFQGVMMRCYNEGIPFAEAERSVYPYSHAEVGALVIRKWNFPESLSTAIMHHHQFGSAPITDQYDLFLTATASLANKFCKKLGIGDRDADDDLNLTNAPEAMLLGFTSDTAEKALATFQETFEENKSFFLND | not soluble |
| MGSDKIHHHHHHMNKFNDIIDECDLSFSDWGKNYPRWSSLDAAWWKTFGGDNYLNKYKDGYIVFHREKIKEIARQYKIPSILLASVAHAEAGGMVDYFKYPTLFGRQVVHSYSGWPGKEKILPSPEKTSIGIIAMQIRVVAEIFGKNPSALRNAEATYISICLNKDNFNLTMVARHLYELINYDYPGTDTLNLTDEQFILAGARYNRGVQRSRSDLIRSINAEKDLIEVRDWTSYGRSMLNHREKITKLLYEVTTPPKNSDSN | not soluble |
| MGSDKIHHHHHHMNKLEIENLSKIYGKKVANDKITVTLENGVYGLLGPNGAGKSTLMKQITTLIKPDEGQILYNGEDIFKMDADYRNILGYLPQEFGVYKNFTAKEFLQYIGALKGLRGKYLNSKIGELLDLVGLYDVRNKSIGKFSGGMKRRVGIAQVLLNDPKIIVLDEPTAGLDPQERARFRNLIAKMSRDKIIILSTHIISDIESVAKETIMIKDGKLLMKGTHKDILSHMENKVYNVQVKNECEVDDIQSKYKVVSIQSDINSIVLRIVSEDIPSEDNIQPVQAKFEDVYMFYFDLEDAREV | not soluble |
| MGSDKIHHHHHHMNLQGLLLFDIDGVIRDVAASYRRAIQETVHHYSGWRPSVAEIDALKTEGIWNNDWDASLELLRRDQKSRNQALELPSREQLIEVFSRFYFGGDPNGDPSNWQGFIRNEPLLVNHRFFEELSSLGFAWGFVSGAEPPSARFVLEQRLGLKHPTLIAMGEAPDKPDPTGLLQLASQLAGRRLGQGVPTVAYLGDTVADVRTVINARQQQPEQQWMSLAVAPPHLHGIEQQEARNAYEDRLKQAGADHILSCTTDAIETLKNW | not soluble |
| MGSDKIHHHHHHMNMAQVAVALAKLAGIRKALDLALNDDHKKAGRLPIQNFLIEEVGRYFTGAATQLSILKKELPDLFGDFVEMPVEPKTEMAKTSTEGAAQYRYARSQLEVLARDIDQIFELRANSELAPPLIAAATTRRVFISHGRAPDWREVQAYVEKDIGLPTLELAQEPNQGRTILAKLMEASGQCDSAVIVMTGDDLDAAGQARARENVIHEIGFFQGKYGLGRVCLLHEEGVSIPSNIHGLVYTPFPKGMVSACFGVLTRELKAFY | not soluble |
| MGSDKIHHHHHHMNNKYKNSYIVKEKELVSLSVYNVGFQSCDSLYQWGPGIRDHYLIHYIISGKGRYTVNGSVHTLTPGDAFLVYPNTEVIYQADAQDPWEYTWVGFTGSDAATILRATDFTKAHPYIHSVSNGNEIKRQLMHIYDARGTEFENALEMTGRLYTTLALFVSAATSKPPQNSANSYVQKGIEYISANYSYPITVEDIASYIGLSRSHLFRSFQSILGVSPKEYLTDFRIKQACYLLKHSSLSITAIAGSIGFDNSLYFSKTFHKIKGLSPKEYRSKYKKAQE | not soluble |
| MGSDKIHHHHHHMNNNQTRVLITAIGTMNCTTIISELKKAEEVFYVIGADINGKYSIANSNEVDEFFQFPSVLHDREGYVQYLLNFCKEHNVEVFFCVVDEEVEVVAKHKEDFNAIGITLCLANIDAIITCHNKNLFAEWSEKNIAKYCIKRYENITDVNNDNFPIFIKPVEGRASIGCRKIENMEELWKYASVWDNYIAQEYVTGEIVSVDIVRNRKTEQFEVVQKLELLRNSNGCGIAVEIVDIPEIRQLCCIIADIFNLNGVINAEFFITNKGLKIIEINPRLPAGIEYSCMAGLDVVLNALRIARGEACIFKDIKIGAHYAKRYETYEIK | not soluble |
| MGSDKIHHHHHHMNNTIPRWRGFNLLEAFSIKSTGNFKEEDFLWMAQWDFNFVRIPMCHLLWSDRGNPFIIREDFFEKIDRVIFWGEKYGIHICISLHRAPGYSVNKEVEEKTNLWKDETAQEAFIHHWSFIARRYKGISSTHLSFNLINEPPFPDPQIMSVEDHNSLIKRTITEIRKIDPERLIIIDGLGYGNIPVDDLTIENTVQSCRGYIPFSVTHYKAEWVDSKDFPVPEWPNGWHFGEYWNREKLLEHYLTWIKLRQKGIEVFCGEMGAYNKTPHDVVLKWLEDLLEIFKTLNIGFALWNFRGPFGILDSERKDVEYEEWYGHKLDRKMLELLRKY | soluble |
| MGSDKIHHHHHHMNPDFSYEKKKIEFSSGYIFKGKHYRCSIIKYASLYKNCTKGTENVEIYHFSPRERSVGSILILHGLGTVNIPFLFWMGSHLASAGLQASVMILPGNYTRTASGSTSGKDFFSPDLRRLTAFWEQAVVDTMTTIDLLQQENIWWDNNCLFGYCLGGMVSTIVSAIDKRINDLILMTVGGNIAKIIWQSPVLKSIRLSLRSGSGEEGYLNDEKRLNARFKEDSLAVKKMKSASELLESDLHPLFKIDPLAYARFNDSEKVTMIEALFDKALPVQTRKQLWEAFGRPKRYIVPIGHVSWFPFEYALGKYILKKLGIKEARKKMRLLESTKPTE | not soluble |
| MGSDKIHHHHHHMNPLETLWQLAANSVKADVLHLALEQQIFDRLEDVTAPEQLAESLGWQPEKTGFLLEILWSMQLLTRHHGGYRTASASSAVLCRSSPRFLGDAWRFRLTSLRQFGQGLADGMHQPLPAQLSELPRDAAWASAAEQQIAQEQRSITADLADQLLSRLPDFPQIRHVLDLGGGPGWVAITLALRHAQISGTIYDLPQTAAVAQRNINAAGLSARLSAQSGAFPSEKYDLIWSSSFLHFVEDIPAMLSTLYNTLTPDGSLVLAQAEIPEEADDAAPILPFYLPMQISGRHVTQEGQLTQWLVEAGFTSVETRRHQAFPMAPLNVLIARKHR | not soluble |
| MGSDKIHHHHHHMNQHTLLPKKTERLQYFGSVSPIKGEKPVEKEKMKDLQNIRKDYFFDIQHVGVANVSHPVTITSAMMPAEQTTAANFTMTCNLPRNQKGINMSRLTELLQVYHQNGWILSFSSLQQFTKELAENMDTSSATVEVRFPWFFERKSPKLEKAGLMHADIFMSVTYRKDQPFKQRAGISAKVTTLCPCSKEISEYSAHNQRGTVKHLGRIFTRAASLPSDVKADLPHAAESNASARLHPVLKRPDEKAVTETAYENPRFVEDLARLIAADLFELEWVSAFEIECRNEESIHLHRCLCEVCFSKEVDKI | not soluble |
| MGSDKIHHHHHHMNRTQLSQLAVLSAVAAHGSFRGAAKELGIAPSAVSHAVGSLEASLGVRLLARTTRSVAATEEGKRLLERLRPALDDIAEALQRAAEARDRPAGKLRITAPRFAADLILAPRLGDFLGRYPDTVLEIANEDGFTNIVEEGYDAGIRLGESLEADMVAVKVGPELKSAVVAAPSYFERFQRPRHPRDLAGHRCIRRRFSNGTIYRWEFEKEGEELTVSVNGPLILGEDRPIIEAATGGAGLAYLFEPRVSGYVAEGKLVRVLEDWCAPYAGPFLYYPTRRLMRPALRAFIDFFRHSG | not soluble |
| MGSDKIHHHHHHMNSDIIVADFWKNNEEILTDFDKDSFCESWTENEMWSIEFKVAQTPKNAHCYSFLDYESSVYFRGQEFVVKQLSHDAVGKTLSKDIRAPHIYYTCQDGRQDDAITGSFTLEQCLTHIFKTDNRGFSWEIIDPSNILEKVQQENFGNNNYLTLIDQLLDDYGVVVIPDNRHLVFKPREIYGAKTENFIRYKYNTDEASFDIDTLSLKTKIKGYGKVDSNGNNYFSPITYTSPEVEKWGIRWQEPVSDERYTVAGNMQRRLKLELQDYPATTGSVILKNDYECEKGDYVLFIYEPLGIDYDVQIVAYKKYPFTIKAPEITLSNNKKSIVSIMAQLAKVLKGAK | not soluble |
| MGSDKIHHHHHHMNSIQLKAVSFSREQPLFEKTNLAIPQGTFSLLIGDSGSGKSTLLRLIAGFAPLDYQGEILIEGMERRQLSTREKAQKIGMLFQNPSQQFTMKTLERELIFALENLGIPPEEMNRKIQTALQLVQTQTLFTRELATLSGGEKQKAALTVLLAMNPDILLLDEPFASIDPTSRKQFIQILARLHQAGKTILVCDHDFSDYADVVDQVVTLKNGQFEKQPLTFIKTKPQTFQLTTSVVKQPMLQLKNFRLSQGKRVLLEEKEALLFKGITTLTGPNGAGKSTLLKAIVQRQKYQGKMFLAGRRLRASKKLYQHMTLAVQQANRQFVTLTLREELLFGQNMTAEKRRKQEEALTFLGLKEKLEHSVFQLSEGQKKMVQLISLLSLDLDCLLLDEPFAGLDERACNYFVEWIKEKSAQQDFLIVTHRLEPLSGVSNYRIELLQQQLIIWQEGTTCK | not soluble |
| MGSDKIHHHHHHMNTHKHARLTFLRRLEMVQQLIAHQVCVPEAARAYGVTAPTVRKWLGRFLAQGQAGLADASSRPTVSPRAIAPAKALAIVELRRKRLTQARIAQALGVSASTVSRVLARAGLSHLADLEPAEPVVRYEHQAPGDLLHIDIKKLGRIQRPGHRVTGNRRDTVEGAGWDFVFVAIDDHARVAFTDIHPDERFPSAVQFLKDAVAYYQRLGVTIQRLLTDNGSAFRSRAFAALCHELGIKHRFTRPYRPQTNGKAERFIQSALREWAYAHTYQNSQHRADAMKSWLHHYNWHRPHQGIGRAVPISRLNLDEYNLLTVHS | not soluble |
| MGSDKIHHHHHHMNTQPVIGISGCLTGSAVRFDGGHKRMGFVMDELAQWVAFKPVCPEMAIGLPVPRPALRLVQTPVGEIRMRFSHAPHEDVTEKMADFASAHLATLGGLSGFIVCAKSPSCGMERVRLYDEKGNRGRKEGVGLFTGALMARYPWLPVEEDGRLHDPLLRENFVERVFALHELNALRARGLTRHGLLAFHSRYKLQLLAHHQAGYREIGPFVASLHEWEDLEAFFEVYREKLMAILKQPASRKNHTNVLMHIQGYFRDQLNSRQRGELREVILNYRAGLLPILAPLTLLKHYLAEYPDRYLQAQNYFDPYPQDLALRLTVN | not soluble |
| MGSDKIHHHHHHMNTYAQESKLRLKTKIGADGRCVIEDNFFTPPFKLMAPFYPKDDLAEIMLLAVSPGMMRGDAQDVQLNIGPNCKLRITSQSFEKIHNTEDGFASRDMHIVVGENAFLDFAPFPLIPFENAHFKGNTTISLRSSSQLLYSEIIVAGRVARNELFKFNRLHTKISILQDEKPIYYDNTILDPKTTDLNNMCMFDGYTHYLNLVLVNCPIELSGVRECIEESEGVDGAVSETASSHLCVKALAKGSEPLLHLREKIARLVTQTTTQKV | not soluble |
